T1: 1-phosphatidylinositol 4,5-bisphosphate phosphodiesterase beta-1 (Homo sapiens) (UniProt Q9NQ66)
T1 sequence (whole entry): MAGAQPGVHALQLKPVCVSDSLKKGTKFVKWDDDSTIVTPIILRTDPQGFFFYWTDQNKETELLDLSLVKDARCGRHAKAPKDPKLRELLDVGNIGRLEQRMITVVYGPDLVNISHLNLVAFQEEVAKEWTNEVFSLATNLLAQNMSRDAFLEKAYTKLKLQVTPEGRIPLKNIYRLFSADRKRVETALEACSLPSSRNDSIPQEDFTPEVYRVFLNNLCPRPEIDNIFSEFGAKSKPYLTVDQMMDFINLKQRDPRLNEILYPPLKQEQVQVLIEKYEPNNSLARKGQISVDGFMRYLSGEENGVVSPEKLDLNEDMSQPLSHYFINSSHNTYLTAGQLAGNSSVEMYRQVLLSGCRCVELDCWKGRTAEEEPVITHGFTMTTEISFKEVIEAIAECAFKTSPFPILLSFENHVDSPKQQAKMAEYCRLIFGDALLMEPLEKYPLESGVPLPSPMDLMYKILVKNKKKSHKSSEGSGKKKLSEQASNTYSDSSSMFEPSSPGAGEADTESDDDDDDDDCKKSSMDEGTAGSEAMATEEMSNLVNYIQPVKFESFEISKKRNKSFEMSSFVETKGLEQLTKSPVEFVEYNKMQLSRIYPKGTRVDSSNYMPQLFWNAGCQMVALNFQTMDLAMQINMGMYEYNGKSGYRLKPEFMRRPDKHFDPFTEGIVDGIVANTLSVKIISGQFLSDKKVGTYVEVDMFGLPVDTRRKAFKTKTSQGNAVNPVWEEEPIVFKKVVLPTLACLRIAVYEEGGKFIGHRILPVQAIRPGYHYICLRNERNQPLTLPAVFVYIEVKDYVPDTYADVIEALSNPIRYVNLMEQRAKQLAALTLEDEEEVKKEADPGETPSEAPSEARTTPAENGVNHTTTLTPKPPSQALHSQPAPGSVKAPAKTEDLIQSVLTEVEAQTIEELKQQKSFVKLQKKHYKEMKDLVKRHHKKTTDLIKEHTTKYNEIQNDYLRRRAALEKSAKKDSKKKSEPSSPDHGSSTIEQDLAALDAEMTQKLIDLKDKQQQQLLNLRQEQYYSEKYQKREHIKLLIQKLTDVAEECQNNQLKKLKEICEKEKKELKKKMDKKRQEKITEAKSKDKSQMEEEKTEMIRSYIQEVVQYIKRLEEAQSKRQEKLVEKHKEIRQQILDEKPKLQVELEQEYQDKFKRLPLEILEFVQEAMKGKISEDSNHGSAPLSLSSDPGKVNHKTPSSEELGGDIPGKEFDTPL


Legend:
[1] = target: T1, 1-phosphatidylinositol 4,5-bisphosphate phosphodiesterase beta-1 (Homo sapiens); test: Ratio of the kinetic constant kcat to that of KM
[2] = target: T1, 1-phosphatidylinositol 4,5-bisphosphate phosphodiesterase beta-1 (Homo sapiens); test: Kinetic constant kcat against human phosphoinositide-specific phospholipase C
[3] = substrate: O=[N+]([O-])c1ccc(OP(=O)(O)O[C@@H]2[C@H](O)[C@H](O)[C@@H](OP(=O)(O)O)[C@H](OP(=O)(O)O)[C@H]2O)cc1; test: Kinetic constant Vmax against human phosphoinositide-specific phospholipase C
[4] = substrate: O=[N+]([O-])c1ccc(OP(=O)(O)O[C@@H]2[C@H](O)[C@H](O)[C@@H](OP(=O)(O)O)[C@H](OP(=O)(O)O)[C@H]2O)cc1; test: Michaelis-Menten constant of the compound (D-isomer) was determined against human phosphoinositide-specific phospholipase C
[5] = substrate: O=[N+]([O-])c1ccc(OP(=O)(O)O[C@@H]2[C@H](O)[C@H](O)[C@@H](OP(=O)(O)O)[C@H](OP(=O)(O)O)[C@H]2O)cc1; test: Michaelis-Menten constant against human phosphoinositide-specific phospholipase C

| Molecule | Ratio [1] | k cat [2] | Vmax [3] | Km [4] | Km [5] |
| --- | --- | --- | --- | --- | --- |
| O=[N+]([O-])c1ccc(OP(=O)(O)O[C@@H]2[C@H](O)[C@H](O)[C@@H](OP(=O)(O)O)[C@H](OP(=O)(O)O)[C@H]2O)cc1 (racemic) | 83000 | 112 s⁻¹ | – | – | – |
| 1-phosphatidylinositol 4,5-bisphosphate phosphodiesterase beta-1 (Homo sapiens), Q9NQ66 (protein) MAGAQPGVHALQLKPVCVSDSLKKGTKFVKWDDDSTIVTPIILRTDPQGFFFYWTDQNKETELLDLSLVKDARCGRHAKAPKDPKLRELLDVGNIGRLEQRMITVVYGPDLVNISHLNLVAFQEEVAKEWTNEVFSLATNLLAQNMSRDAFLEKAYTKLKLQVTPEGRIPLKNIYRLFSADRKRVETALEACSLPSSRNDSIPQEDFTPEVYRVFLNNLCPRPEIDNIFSEFGAKSKPYLTVDQMMDFINLKQRDPRLNEILYPPLKQEQVQVLIEKYEPNNSLARKGQISVDGFMRYLSGEENGVVSPEKLDLNEDMSQPLSHYFINSSHNTYLTAGQLAGNSSVEMYRQVLLSGCRCVELDCWKGRTAEEEPVITHGFTMTTEISFKEVIEAIAECAFKTSPFPILLSFENHVDSPKQQAKMAEYCRLIFGDALLMEPLEKYPLESGVPLPSPMDLMYKILVKNKKKSHKSSEGSGKKKLSEQASNTYSDSSSMFEPSSPGAGEADTESDDDDDDDDCKKSSMDEGTAGSEAMATEEMSNLVNYIQPVKFESFEISKKRNKSFEMSSFVETKGLEQLTKSPVEFVEYNKMQLSRIYPKGTRVDSSNYMPQLFWNAGCQMVALNFQTMDLAMQINMGMYEYNGKSGYRLKPEFMRRPDKHFDPFTEGIVDGIVANTLSVKIISGQFLSDKKVGTYVEVDMFGLPVDTRRKAFKTKTSQGNAVNPVWEEEPIVFKKVVLPTLACLRIAVYEEGGKFIGHRILPVQAIRPGYHYICLRNERNQPLTLPAVFVYIEVKDYVPDTYADVIEALSNPIRYVNLMEQRAKQLAALTLEDEEEVKKEADPGETPSEAPSEARTTPAENGVNHTTTLTPKPPSQALHSQPAPGSVKAPAKTEDLIQSVLTEVEAQTIEELKQQKSFVKLQKKHYKEMKDLVKRHHKKTTDLIKEHTTKYNEIQNDYLRRRAALEKSAKKDSKKKSEPSSPDHGSSTIEQDLAALDAEMTQKLIDLKDKQQQQLLNLRQEQYYSEKYQKREHIKLLIQKLTDVAEECQNNQLKKLKEICEKEKKELKKKMDKKRQEKITEAKSKDKSQMEEEKTEMIRSYIQEVVQYIKRLEEAQSKRQEKLVEKHKEIRQQILDEKPKLQVELEQEYQDKFKRLPLEILEFVQEAMKGKISEDSNHGSAPLSLSSDPGKVNHKTPSSEELGGDIPGKEFDTPL | – | – | 78.5 µM/min/mg | 1350 µM | 2700 µM |

Source: ChEMBL document CHEMBL1130356, “A CHROMOGENIC SUBSTRATE FOR THE CONTINUOUS ASSAY OF MAMMALIAN PHOSPHOINOSITIDE-SPECIFIC PHOSPHOLIPASE C” (Bioorg Med Chem Lett, 1997)
